Earlier results on one substance are cited in paper PMC7642319.

The data set addresses NbpSH3 SH3 (Saccharomyces cerevisiae) (UniProt Q12163).

Sequence of NbpSH3 SH3 (Saccharomyces cerevisiae) (Q12163 107-174): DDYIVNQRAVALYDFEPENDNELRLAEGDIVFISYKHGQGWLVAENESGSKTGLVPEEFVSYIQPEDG
Sequence of Ste20 (Q03497 2-939): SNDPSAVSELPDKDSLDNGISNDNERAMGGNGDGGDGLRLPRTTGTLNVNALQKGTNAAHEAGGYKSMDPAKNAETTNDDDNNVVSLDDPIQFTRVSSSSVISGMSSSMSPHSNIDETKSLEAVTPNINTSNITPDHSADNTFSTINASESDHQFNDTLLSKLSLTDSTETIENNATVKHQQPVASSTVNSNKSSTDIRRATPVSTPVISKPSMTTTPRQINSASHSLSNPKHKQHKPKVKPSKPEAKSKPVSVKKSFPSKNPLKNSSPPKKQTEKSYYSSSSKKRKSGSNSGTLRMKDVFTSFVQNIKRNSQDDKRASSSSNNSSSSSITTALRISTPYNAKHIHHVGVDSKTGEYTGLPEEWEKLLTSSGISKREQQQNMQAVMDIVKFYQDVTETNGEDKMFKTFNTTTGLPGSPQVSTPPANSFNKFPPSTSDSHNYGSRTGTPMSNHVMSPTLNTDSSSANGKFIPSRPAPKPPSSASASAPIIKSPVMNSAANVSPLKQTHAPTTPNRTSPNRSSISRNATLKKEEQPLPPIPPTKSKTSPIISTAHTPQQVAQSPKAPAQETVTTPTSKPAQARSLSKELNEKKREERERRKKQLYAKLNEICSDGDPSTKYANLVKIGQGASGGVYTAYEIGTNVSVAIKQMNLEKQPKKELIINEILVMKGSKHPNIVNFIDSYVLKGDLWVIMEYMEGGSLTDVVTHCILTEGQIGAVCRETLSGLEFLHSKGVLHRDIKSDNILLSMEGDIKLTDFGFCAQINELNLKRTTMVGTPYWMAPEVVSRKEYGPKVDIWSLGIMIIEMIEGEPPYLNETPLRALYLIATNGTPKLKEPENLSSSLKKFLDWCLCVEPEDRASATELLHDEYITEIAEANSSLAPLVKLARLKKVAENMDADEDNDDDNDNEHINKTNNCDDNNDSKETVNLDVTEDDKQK

For orientation: Kd means a measure of binding affinity in units of concentration. As for Ste20 (from UniProt Q03497), the Kd was 200 nM.
